Data as given in patent US20210253718A1 (MODMAB THERAPEUTICS, published 2021).
Numbering of substitutions follows the chain as printed.

T1: FZD3 cysteine-rich domain (CRD), MYC-tagged and GPI-anchored on CHO cells (human, UniProt Q9NPG1 24-150, GPI anchor)
T1 construct: domain: cysteine-rich domain (CRD); also called FZD3 CRD; CHO-myc-FZDGPI; not shown: MYC tag and GPI anchor signal
T1 sequence (looked up): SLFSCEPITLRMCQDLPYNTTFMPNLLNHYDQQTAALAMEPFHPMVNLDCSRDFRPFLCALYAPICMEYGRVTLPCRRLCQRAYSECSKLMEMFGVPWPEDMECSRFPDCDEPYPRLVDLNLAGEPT

T2: FZD4 cysteine-rich domain (CRD), MYC-tagged and GPI-anchored on CHO cells (human, UniProt Q9ULV1 42-167, GPI anchor)
T2 construct: also called FZD4 CRD; CHO-myc-FZDGPI; not shown: MYC tag and GPI anchor signal
T2 sequence: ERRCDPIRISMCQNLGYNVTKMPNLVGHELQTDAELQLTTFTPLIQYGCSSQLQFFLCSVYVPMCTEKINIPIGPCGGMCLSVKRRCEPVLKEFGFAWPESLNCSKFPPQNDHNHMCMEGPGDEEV

T3: FZD5 cysteine-rich domain (CRD), MYC-tagged and GPI-anchored on CHO cells (human, UniProt Q13467 29-156, GPI anchor)
T3 construct: also called FZD5 CRD; CHO-myc-FZDGPI; not shown: MYC tag and GPI anchor signal
T3 sequence: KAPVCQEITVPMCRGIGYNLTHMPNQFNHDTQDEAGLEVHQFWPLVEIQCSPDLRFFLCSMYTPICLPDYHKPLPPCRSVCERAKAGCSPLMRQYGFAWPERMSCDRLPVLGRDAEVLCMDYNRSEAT

T4: FZD6 cysteine-rich domain (CRD), MYC-tagged and GPI-anchored on CHO cells (human, UniProt O60353 20-146, GPI anchor)
T4 construct: also called FZD6 CRD; CHO-myc-FZDGPI; not shown: MYC tag and GPI anchor signal
T4 sequence: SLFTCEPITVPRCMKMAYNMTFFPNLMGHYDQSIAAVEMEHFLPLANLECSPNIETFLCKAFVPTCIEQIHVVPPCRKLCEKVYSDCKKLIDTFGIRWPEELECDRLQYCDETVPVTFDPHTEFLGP

T5: FZD8 cysteine-rich domain (CRD), MYC-tagged and GPI-anchored on CHO cells (human, UniProt Q498S8 31-155 (rat entry), GPI anchor)
T5 construct: also called FZD8 CRD; CHO-myc-FZDGPI; not shown: MYC tag and GPI anchor signal
T5 sequence: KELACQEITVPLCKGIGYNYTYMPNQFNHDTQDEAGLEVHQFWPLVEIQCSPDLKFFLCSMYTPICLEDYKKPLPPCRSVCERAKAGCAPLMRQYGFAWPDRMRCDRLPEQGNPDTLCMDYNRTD

T6: FZD9 cysteine-rich domain (CRD), MYC-tagged and GPI-anchored on CHO cells (human, UniProt O00144 35-161, GPI anchor)
T6 construct: also called FZD9 CRD; CHO-myc-FZDGPI; not shown: MYC tag and GPI anchor signal
T6 sequence: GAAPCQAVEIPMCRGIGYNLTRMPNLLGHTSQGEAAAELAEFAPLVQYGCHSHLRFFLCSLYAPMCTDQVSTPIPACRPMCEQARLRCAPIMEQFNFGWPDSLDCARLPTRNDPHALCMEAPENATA

T7: FZD10 cysteine-rich domain (CRD), MYC-tagged and GPI-anchored on CHO cells (human, UniProt Q9ULW2 30-156, GPI anchor)
T7 construct: also called FZD10 CRD; CHO-myc-FZDGPI; not shown: MYC tag and GPI anchor signal
T7 sequence: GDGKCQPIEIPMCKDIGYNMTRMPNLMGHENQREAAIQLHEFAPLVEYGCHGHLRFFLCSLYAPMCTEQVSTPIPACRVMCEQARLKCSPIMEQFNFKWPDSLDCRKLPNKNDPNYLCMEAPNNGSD

B1: Fab-2917 (Fab, V domains shown)
VH: EVQLVESGGGLVQPGGSLRLSCAASGFNFSSSSIHWVRQAPGKGLEWVASISSSYGYTYYADSVKGRFTISADTSKNTAYLQMNSLRAEDTAVYYCARAVWYYWWVWGGFDYWGQGTLVTVSS
VL: DIQMTQSPSSLSASVGDRVTITCRASQSVSSAVAWYQQKPGKAPKLLIYSASSLYSGVPSRFSGSRSGTDFTLTISSLQPEDFATYYCQQSSYSLITFGQGTKVEIK
notes: Fab; also called Fv-2917
B2: Fab-2910 (Fab, V domains shown)
VH: EVQLVESGGGLVQPGGSLRLSCAASGFNISYSYMHWVRQAPGKGLEWVASIYSSSSSTSYADSVKGRFTISADTSKNTAYLQMNSLRAEDTAVYYCARGAMDYWGQGTLVTVSS
VL: DIQMTQSPSSLSASVGDRVTITCRASQSVSSAVAWYQQKPGKAPKLLIYSASSLYSGVPSRFSGSRSGTDFTLTISSLQPEDFATYYCQQWYGSHLITFGQGTKVEIK
notes: Fab
B3: Fab-2929 (Fab, V domains shown)
VH: B2 VH with S32Y, M34I, S53P
VL: DIQMTQSPSSLSASVGDRVTITCRASQSVSSAVAWYQQKPGKAPKLLIYSASSLYSGVPSRFSGSRSGTDFTLTISSLQPEDFATYYCQQWYSSYGLITFGQGTKVEIK
notes: Fab; also called Fv-2929
B4: Fab-2918 (Fab, V domains shown)
VH: EVQLVESGGGLVQPGGSLRLSCAASGFNLSYSSIHWVRQAPGKGLEWVASIYSSYSSTSYADSVKGRFTISADTSKNTAYLQMNSLRAEDTAVYYCARFGYWAIDYWGQGTLVTVSS
VL: B2 VL with W91A, Y92F, S94A, H95S, I97F
notes: Fab; also called Fv-2918

target: T8, FZD2 cysteine-rich domain (CRD), MYC-tagged and GPI-anchored on CHO cells (human, UniProt Q14332 35-161); assay: flow cytometry, CHO-CRD cells;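 note: flow cytometry of Fab binding to CHO cells overexpressing a Frizzled CRD, with binding defined as median fluorescence over twice that of CHO cells lacking any Frizzled CRD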
Protocol: (§1) Binding was measured via flow cytometry analysis of CHO cells overexpressing CRD of FZD1, FZD2, FZD3, FZD4, FZD5, FZD6, FZD7, FZD8, FZD9 or FZD10. Median fluorescence values are shown.

median fluorescence | Binder
5.57 | B1
4.47 | B2
4.29 | B3
4.41 | B4

target: T1, FZD3 cysteine-rich domain (CRD), …; assay: flow cytometry, CHO-CRD cells;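 note: flow cytometry of Fab binding to CHO cells overexpressing a Frizzled CRD, with binding defined as median fluorescence over twice that of CHO cells lacking any Frizzled CRD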
Protocol: as §1

median fluorescence | Binder
3.46 | B1
3.28 | B2
3.55 | B3
3.55 | B4

target: T2, FZD4 cysteine-rich domain (CRD), …; assay: flow cytometry, CHO-CRD cells;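 note: flow cytometry of Fab binding to CHO cells overexpressing a Frizzled CRD, with binding defined as median fluorescence over twice that of CHO cells lacking any Frizzled CRD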
Protocol: as §1

median fluorescence | Binder
4.14 | B1
5 | B2
3.72 | B3
4.07 | B4

target: T3, FZD5 cysteine-rich domain (CRD), …; assay: flow cytometry, CHO-CRD cells;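 note: flow cytometry of Fab binding to CHO cells overexpressing a Frizzled CRD, with binding defined as median fluorescence over twice that of CHO cells lacking any Frizzled CRD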
Protocol: as §1

median fluorescence | Binder
30.5 | B2
27.1 | B3
29.2 | B4

target: T4, FZD6 cysteine-rich domain (CRD), …; assay: flow cytometry, CHO-CRD cells
Protocol: as §1

median fluorescence | Binder
2.89 | B1
2.79 | B2
2.84 | B3
2.69 | B4

target: FZD7 cysteine-rich domain (CRD), MYC-tagged and GPI-anchored on CHO cells (human, UniProt O75084 45-169); assay: flow cytometry, CHO-CRD cells
Protocol: as §1

median fluorescence | Binder
20.5 | B1
10.2 | B2
13 | B3
7.5 | B4

target: T5, FZD8 cysteine-rich domain (CRD), …; assay: flow cytometry, CHO-CRD cells
Protocol: as §1

median fluorescence | Binder
7.91 | B2
7.91 | B3
7.57 | B4

target: T6, FZD9 cysteine-rich domain (CRD), …; assay: flow cytometry, CHO-CRD cells
Protocol: as §1

median fluorescence | Binder
3.49 | B1
2.74 | B2
3.08 | B3
3.11 | B4

target: T7, FZD10 cysteine-rich domain (CRD), …; assay: flow cytometry, CHO-CRD cells
Protocol: as §1

median fluorescence | Binder
2.76 | B1
2.81 | B2
2.64 | B3
2.81 | B4

target: T8, FZD2 cysteine-rich domain (CRD), …; assay: immunofluorescence, CHO-CRD cells

binding result | Binder
no binding | B1
no binding | B2
no binding | B3
no binding | B4

target: T1, FZD3 cysteine-rich domain (CRD), …; assay: immunofluorescence, CHO-CRD cells

binding result | Binder
no binding | B1
no binding | B2
no binding | B3
no binding | B4

target: T2, FZD4 cysteine-rich domain (CRD), …; assay: immunofluorescence, CHO-CRD cells

binding result | Binder
no binding | B1
no binding | B2
no binding | B3
no binding | B4

target: T4, FZD6 cysteine-rich domain (CRD), …; assay: immunofluorescence, CHO-CRD cells

binding result | Binder
no binding | B1
no binding | B2
no binding | B3
no binding | B4

target: T6, FZD9 cysteine-rich domain (CRD), …; assay: immunofluorescence, CHO-CRD cells

binding result | Binder
no binding | B1
no binding | B2
no binding | B3
no binding | B4

target: T7, FZD10 cysteine-rich domain (CRD), …; assay: immunofluorescence, CHO-CRD cells

binding result | Binder
no binding | B1
no binding | B2
no binding | B3
no binding | B4
